Measurements as given in paper PMC12627605 (Nature Communications, 2025).

Key:
GST-PP2C51 = biological target: T1, GST-PP2C51 (rice, UniProt Q65XK7 1-381); assay: pull-down
T1 sequence: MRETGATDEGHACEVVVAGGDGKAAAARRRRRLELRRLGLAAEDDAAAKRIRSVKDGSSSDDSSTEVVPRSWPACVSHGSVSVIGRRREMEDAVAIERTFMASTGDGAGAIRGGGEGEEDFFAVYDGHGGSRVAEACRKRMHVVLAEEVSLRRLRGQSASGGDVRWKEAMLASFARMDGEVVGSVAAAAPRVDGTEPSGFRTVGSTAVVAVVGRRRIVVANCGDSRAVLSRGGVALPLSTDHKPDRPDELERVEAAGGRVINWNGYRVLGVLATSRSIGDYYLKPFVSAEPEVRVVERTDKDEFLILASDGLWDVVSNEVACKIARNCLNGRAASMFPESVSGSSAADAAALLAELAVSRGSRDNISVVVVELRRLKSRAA

GST-PP2C30 = biological target: T2, GST-PP2C30 (rice, UniProt Q84JI0 1-404); assay: pull-down
T2 sequence: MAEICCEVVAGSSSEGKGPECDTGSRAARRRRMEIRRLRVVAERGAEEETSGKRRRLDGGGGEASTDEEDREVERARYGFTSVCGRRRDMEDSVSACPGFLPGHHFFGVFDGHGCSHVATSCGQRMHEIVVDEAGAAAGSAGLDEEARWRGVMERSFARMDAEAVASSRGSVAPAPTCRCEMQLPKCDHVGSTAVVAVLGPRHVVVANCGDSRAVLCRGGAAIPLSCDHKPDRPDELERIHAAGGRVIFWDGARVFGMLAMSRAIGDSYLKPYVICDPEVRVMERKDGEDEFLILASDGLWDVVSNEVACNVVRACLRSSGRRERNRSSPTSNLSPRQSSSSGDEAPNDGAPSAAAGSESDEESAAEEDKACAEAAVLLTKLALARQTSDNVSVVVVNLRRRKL

B1: SAPK2-His (natural protein)
chain: MERYEVIKDIGSGNFGVAKLVRDVRTKELFAVKFIERGQKIDENVQREIMNHRSLRHPNIVRFKEVVLTPTHLAIVMEYAAGGELFERICSAGRFSEDEARFFFQQLISGVSYCHSMQICHRDLKLENTLLDGSIAPRLKICDFGYSKSSLLHSQPKSTVGTPAYIAPEVLARKEYDGKVADVWSCGVTLYVMLVGAYPFEDPDEPRNFRKTITRILSVQYMVPDYVRVSMECRHLLSRIFVANPEQRITIPEIKNHPWFLKNLPIEMTDEYQMSVQMNDINTPSQGLEEIMAIIQEARKPGDGSKFSGQIPGLGSMELDDVDTDDIDVEDSGDFVCAL
**Q.** Does B1 bind (GST-PP2C51)?
**A.** binds

**Q.** Does B1 bind (GST-PP2C30)?
**A.** binds
